Measured values from paper PMC10786891, “Massively parallel profiling of RNA-targeting CRISPR-Cas13d”.

T1: EsCas13d, nuclease-dead (Eubacterium siraeum, UniProt B0MS50, R295A;H300A;R849A;H854A)
T1 sequence: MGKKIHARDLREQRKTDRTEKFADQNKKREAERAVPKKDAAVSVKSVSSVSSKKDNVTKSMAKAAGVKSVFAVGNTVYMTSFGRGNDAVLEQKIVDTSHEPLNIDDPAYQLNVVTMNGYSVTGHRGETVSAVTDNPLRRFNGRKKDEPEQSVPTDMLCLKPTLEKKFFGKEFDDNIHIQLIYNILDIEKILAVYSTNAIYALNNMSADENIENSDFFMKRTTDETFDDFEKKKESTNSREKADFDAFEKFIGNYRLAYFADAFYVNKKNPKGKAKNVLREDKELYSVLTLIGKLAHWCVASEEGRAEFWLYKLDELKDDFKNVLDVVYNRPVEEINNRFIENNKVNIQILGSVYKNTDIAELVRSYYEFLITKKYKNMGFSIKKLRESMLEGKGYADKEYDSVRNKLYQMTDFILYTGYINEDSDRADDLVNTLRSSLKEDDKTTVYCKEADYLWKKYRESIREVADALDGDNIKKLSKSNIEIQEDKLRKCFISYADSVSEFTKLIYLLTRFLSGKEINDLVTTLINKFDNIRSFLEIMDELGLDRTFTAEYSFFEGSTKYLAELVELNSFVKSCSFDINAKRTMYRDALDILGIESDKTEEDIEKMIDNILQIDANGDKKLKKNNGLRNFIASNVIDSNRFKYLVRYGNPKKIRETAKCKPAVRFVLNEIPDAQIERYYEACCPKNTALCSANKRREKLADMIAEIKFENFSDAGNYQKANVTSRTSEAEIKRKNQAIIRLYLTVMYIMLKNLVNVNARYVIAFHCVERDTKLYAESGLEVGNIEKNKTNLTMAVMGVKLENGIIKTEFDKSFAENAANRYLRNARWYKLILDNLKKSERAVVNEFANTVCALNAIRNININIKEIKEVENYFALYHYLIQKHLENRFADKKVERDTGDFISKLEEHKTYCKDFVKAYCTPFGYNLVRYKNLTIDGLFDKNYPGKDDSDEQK


Target: T1, EsCas13d, nuclease-dead
Test: crRNA (strand 1, pre-loaded); Mg2+; 40 mM Tris-HCl pH 7.5, 150 mM NaCl, 6 mM MgCl2, 1 mM DTT, 0.1% Tween-20, 0.2 mg/ml BSA; 25 C; 10 min per concentration, then washed
Details: tags: His6-TwinStrep-SUMO cleaved; N-terminal SNAP kept (SNAP-Surface 488); label: 3' end held by stalled T7 RNA polymerase

| Binder | Kd [nM] |
| --- | --- |
| target 1 del13,del20 (mixed) RNA 1: CACCCGUGCAAAAAUGCAGGGGUCUAAAACUGAGCGGAUAACCUCUCUAUGG RNA 2: GGGAAUGGAUCCACAUCUACGAAUUCGUACCUAGAGAGUUAUCCGCUCACCGAGAUCGGAAGAGCACACGU | 56 ± 8 |
| target 1 insA 3' of 6,insG 3' of 6 (mixed) RNA 1: CACCCGUGCAAAAAUGCAGGGGUCUAAAACUGAGCGGAUAACCUCUCUAUGG RNA 2: GGGAAUGGAUCCACAUCUACGAAUUCGUACCAUAGAGAGGUUAUCCAGGCUCACCGAGAUCGGAAGAGCACACGU | 32 ± 5 |
| target 1 U8G,C22A (mixed) RNA 1: CACCCGUGCAAAAAUGCAGGGGUCUAAAACUGAGCGGAUAACCUCUCUAUGG RNA 2: GGGAAUGGAUCCACAUCUACGAAUUCGUAACAUAGAGAGGUUAGCCGCUCACCGAGAUCGGAAGAGCACACGU | 27.6 ± 3 |
| target 1 A9G,A14C (mixed) RNA 1: CACCCGUGCAAAAAUGCAGGGGUCUAAAACUGAGCGGAUAACCUCUCUAUGG RNA 2: GGGAAUGGAUCCACAUCUACGAAUUCGUACCAUAGAGCGGUUGUCCGCUCACCGAGAUCGGAAGAGCACACGU | 46 ± 6 |
| target 1 del17 (mixed) RNA 1: CACCCGUGCAAAAAUGCAGGGGUCUAAAACUGAGCGGAUAACCUCUCUAUGG RNA 2: GGGAAUGGAUCCACAUCUACGAAUUCGUACCAUAAGAGGUUAUCCGCUCACCGAGAUCGGAAGAGCACACGU | 22.6 ± 1.6 |
| target 1 C6U,G12U (mixed) RNA 1: CACCCGUGCAAAAAUGCAGGGGUCUAAAACUGAGCGGAUAACCUCUCUAUGG RNA 2: GGGAAUGGAUCCACAUCUACGAAUUCGUACCAUAGAGAGUUUAUCUGCUCACCGAGAUCGGAAGAGCACACGU | 11.3 ± 0.8 |
| target 1 insC 3' of 20,insC 3' of 10 (mixed) RNA 1: CACCCGUGCAAAAAUGCAGGGGUCUAAAACUGAGCGGAUAACCUCUCUAUGG RNA 2: GGGAAUGGAUCCACAUCUACGAAUUCGUACCACUAGAGAGGUUCAUCCGCUCACCGAGAUCGGAAGAGCACACGU | 8.7 ± 0.6 |
| target 1 C2A,G13A (mixed) RNA 1: CACCCGUGCAAAAAUGCAGGGGUCUAAAACUGAGCGGAUAACCUCUCUAUGG RNA 2: GGGAAUGGAUCCACAUCUACGAAUUCGUACCAUAGAGAAGUUAUCCGCUAACCGAGAUCGGAAGAGCACACGU | 5.06 ± 0.27 |
| target 1 insC 3' of 15,insC 3' of 1 (mixed) RNA 1: CACCCGUGCAAAAAUGCAGGGGUCUAAAACUGAGCGGAUAACCUCUCUAUGG RNA 2: GGGAAUGGAUCCACAUCUACGAAUUCGUACCAUAGAGCAGGUUAUCCGCUCACCCGAGAUCGGAAGAGCACACGU | 15.6 ± 1.3 |
| target 1 del19,del20 (mixed) RNA 1: CACCCGUGCAAAAAUGCAGGGGUCUAAAACUGAGCGGAUAACCUCUCUAUGG RNA 2: GGGAAUGGAUCCACAUCUACGAAUUCGUACCAGAGAGGUUAUCCGCUCACCGAGAUCGGAAGAGCACACGU | 32.4 ± 3.4 |
| target 1 insC 3' of 14,insG 3' of 9 (mixed) RNA 1: CACCCGUGCAAAAAUGCAGGGGUCUAAAACUGAGCGGAUAACCUCUCUAUGG RNA 2: GGGAAUGGAUCCACAUCUACGAAUUCGUACCAUAGAGACGGUUAGUCCGCUCACCGAGAUCGGAAGAGCACACGU | 38 ± 9 |
| target 1 insC 3' of 22,insU 3' of 20 (mixed) RNA 1: CACCCGUGCAAAAAUGCAGGGGUCUAAAACUGAGCGGAUAACCUCUCUAUGG RNA 2: GGGAAUGGAUCCACAUCUACGAAUUCGUACCCAUUAGAGAGGUUAUCCGCUCACCGAGAUCGGAAGAGCACACGU | 18.3 ± 2.7 |
| target 1 insC 3' of 15,insG 3' of 3 (mixed) RNA 1: CACCCGUGCAAAAAUGCAGGGGUCUAAAACUGAGCGGAUAACCUCUCUAUGG RNA 2: GGGAAUGGAUCCACAUCUACGAAUUCGUACCAUAGAGCAGGUUAUCCGCUGCACCGAGAUCGGAAGAGCACACGU | 9.32 ± 0.33 |
| target 1 C6A,U11C (mixed) RNA 1: CACCCGUGCAAAAAUGCAGGGGUCUAAAACUGAGCGGAUAACCUCUCUAUGG RNA 2: GGGAAUGGAUCCACAUCUACGAAUUCGUACCAUAGAGAGGCUAUCAGCUCACCGAGAUCGGAAGAGCACACGU | 8.6 ± 0.7 |
| target 1 insC 3' of 15,insA 3' of 2 (mixed) RNA 1: CACCCGUGCAAAAAUGCAGGGGUCUAAAACUGAGCGGAUAACCUCUCUAUGG RNA 2: GGGAAUGGAUCCACAUCUACGAAUUCGUACCAUAGAGCAGGUUAUCCGCUCAACCGAGAUCGGAAGAGCACACGU | 15.6 ± 0.8 |
| target 1 insC 3' of 9,insG 3' of 2 (mixed) RNA 1: CACCCGUGCAAAAAUGCAGGGGUCUAAAACUGAGCGGAUAACCUCUCUAUGG RNA 2: GGGAAUGGAUCCACAUCUACGAAUUCGUACCAUAGAGAGGUUACUCCGCUCGACCGAGAUCGGAAGAGCACACGU | 13.8 ± 0.7 |
| target 1 C2U,U10G (mixed) RNA 1: CACCCGUGCAAAAAUGCAGGGGUCUAAAACUGAGCGGAUAACCUCUCUAUGG RNA 2: GGGAAUGGAUCCACAUCUACGAAUUCGUACCAUAGAGAGGUGAUCCGCUUACCGAGAUCGGAAGAGCACACGU | 23.6 ± 1.7 |
| target 1 insC 3' of 9,insC 3' of 5 (mixed) RNA 1: CACCCGUGCAAAAAUGCAGGGGUCUAAAACUGAGCGGAUAACCUCUCUAUGG RNA 2: GGGAAUGGAUCCACAUCUACGAAUUCGUACCAUAGAGAGGUUACUCCGCCUCACCGAGAUCGGAAGAGCACACGU | 10.9 ± 0.7 |
| target 1 insA 3' of 11,insC 3' of 9 (mixed) RNA 1: CACCCGUGCAAAAAUGCAGGGGUCUAAAACUGAGCGGAUAACCUCUCUAUGG RNA 2: GGGAAUGGAUCCACAUCUACGAAUUCGUACCAUAGAGAGGUAUACUCCGCUCACCGAGAUCGGAAGAGCACACGU | 15.3 ± 0.8 |
| target 1 del19,del22 (mixed) RNA 1: CACCCGUGCAAAAAUGCAGGGGUCUAAAACUGAGCGGAUAACCUCUCUAUGG RNA 2: GGGAAUGGAUCCACAUCUACGAAUUCGUACAAGAGAGGUUAUCCGCUCACCGAGAUCGGAAGAGCACACGU | 56 ± 16 |
| target 1 insC 3' of 8,insU 3' of 1 (mixed) RNA 1: CACCCGUGCAAAAAUGCAGGGGUCUAAAACUGAGCGGAUAACCUCUCUAUGG RNA 2: GGGAAUGGAUCCACAUCUACGAAUUCGUACCAUAGAGAGGUUAUCCCGCUCAUCCGAGAUCGGAAGAGCACACGU | 26.3 ± 2.5 |
| target 1 G17C,C21A (mixed) RNA 1: CACCCGUGCAAAAAUGCAGGGGUCUAAAACUGAGCGGAUAACCUCUCUAUGG RNA 2: GGGAAUGGAUCCACAUCUACGAAUUCGUACAAUACAGAGGUUAUCCGCUCACCGAGAUCGGAAGAGCACACGU | 47 ± 12 |
| target 1 insG 3' of 22,insG 3' of 7 (mixed) RNA 1: CACCCGUGCAAAAAUGCAGGGGUCUAAAACUGAGCGGAUAACCUCUCUAUGG RNA 2: GGGAAUGGAUCCACAUCUACGAAUUCGUACGCAUAGAGAGGUUAUCGCGCUCACCGAGAUCGGAAGAGCACACGU | 18.1 ± 1.1 |
| target 1 C2A,G15C (mixed) RNA 1: CACCCGUGCAAAAAUGCAGGGGUCUAAAACUGAGCGGAUAACCUCUCUAUGG RNA 2: GGGAAUGGAUCCACAUCUACGAAUUCGUACCAUAGACAGGUUAUCCGCUAACCGAGAUCGGAAGAGCACACGU | 40 ± 4 |
| target 1 A1C,A9U (mixed) RNA 1: CACCCGUGCAAAAAUGCAGGGGUCUAAAACUGAGCGGAUAACCUCUCUAUGG RNA 2: GGGAAUGGAUCCACAUCUACGAAUUCGUACCAUAGAGAGGUUUUCCGCUCCCCGAGAUCGGAAGAGCACACGU | 20 ± 5 |
| target 1 C7U,A18U (mixed) RNA 1: CACCCGUGCAAAAAUGCAGGGGUCUAAAACUGAGCGGAUAACCUCUCUAUGG RNA 2: GGGAAUGGAUCCACAUCUACGAAUUCGUACCAUUGAGAGGUUAUUCGCUCACCGAGAUCGGAAGAGCACACGU | 26.9 ± 2.3 |
| target 1 A14C,C21U (mixed) RNA 1: CACCCGUGCAAAAAUGCAGGGGUCUAAAACUGAGCGGAUAACCUCUCUAUGG RNA 2: GGGAAUGGAUCCACAUCUACGAAUUCGUACUAUAGAGCGGUUAUCCGCUCACCGAGAUCGGAAGAGCACACGU | 7.3 ± 0.6 |
| target 1 U3G,G12U (mixed) RNA 1: CACCCGUGCAAAAAUGCAGGGGUCUAAAACUGAGCGGAUAACCUCUCUAUGG RNA 2: GGGAAUGGAUCCACAUCUACGAAUUCGUACCAUAGAGAGUUUAUCCGCGCACCGAGAUCGGAAGAGCACACGU | 8.5 ± 0.4 |
